Positions count from the first letter of the chain named. Numbers in names are those of the source. Read-outs that look alike come from different tables or passages of the source.
T1: human SEMA4A expressed on cells (UniProt ID Q9H3S1, isoform 1) (human, UniProt Q9H3S1 33-761)
T1 sequence: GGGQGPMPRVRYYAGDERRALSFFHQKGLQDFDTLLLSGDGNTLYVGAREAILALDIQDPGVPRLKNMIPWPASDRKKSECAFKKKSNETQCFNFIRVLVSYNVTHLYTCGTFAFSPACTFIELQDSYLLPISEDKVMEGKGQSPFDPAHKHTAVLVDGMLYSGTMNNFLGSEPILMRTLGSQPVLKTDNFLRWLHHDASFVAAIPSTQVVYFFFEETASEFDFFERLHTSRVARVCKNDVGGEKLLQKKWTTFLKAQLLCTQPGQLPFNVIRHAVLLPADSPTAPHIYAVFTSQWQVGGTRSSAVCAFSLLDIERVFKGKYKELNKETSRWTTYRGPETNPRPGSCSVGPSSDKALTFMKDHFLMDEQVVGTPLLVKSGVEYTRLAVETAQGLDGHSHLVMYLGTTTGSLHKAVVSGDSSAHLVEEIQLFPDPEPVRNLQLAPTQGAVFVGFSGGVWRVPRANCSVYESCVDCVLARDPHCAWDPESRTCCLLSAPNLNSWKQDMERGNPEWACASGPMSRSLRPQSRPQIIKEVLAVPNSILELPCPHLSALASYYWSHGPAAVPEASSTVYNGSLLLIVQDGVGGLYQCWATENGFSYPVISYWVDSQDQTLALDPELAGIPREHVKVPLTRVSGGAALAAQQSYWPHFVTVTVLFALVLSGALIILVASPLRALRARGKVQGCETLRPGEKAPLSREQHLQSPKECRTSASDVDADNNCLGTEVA

T2: human SEMA4B expressed on expi293 cells (human, UniProt Q9NPR2 44-837)
T2 construct: whole, on cells
T2 sequence (looked up): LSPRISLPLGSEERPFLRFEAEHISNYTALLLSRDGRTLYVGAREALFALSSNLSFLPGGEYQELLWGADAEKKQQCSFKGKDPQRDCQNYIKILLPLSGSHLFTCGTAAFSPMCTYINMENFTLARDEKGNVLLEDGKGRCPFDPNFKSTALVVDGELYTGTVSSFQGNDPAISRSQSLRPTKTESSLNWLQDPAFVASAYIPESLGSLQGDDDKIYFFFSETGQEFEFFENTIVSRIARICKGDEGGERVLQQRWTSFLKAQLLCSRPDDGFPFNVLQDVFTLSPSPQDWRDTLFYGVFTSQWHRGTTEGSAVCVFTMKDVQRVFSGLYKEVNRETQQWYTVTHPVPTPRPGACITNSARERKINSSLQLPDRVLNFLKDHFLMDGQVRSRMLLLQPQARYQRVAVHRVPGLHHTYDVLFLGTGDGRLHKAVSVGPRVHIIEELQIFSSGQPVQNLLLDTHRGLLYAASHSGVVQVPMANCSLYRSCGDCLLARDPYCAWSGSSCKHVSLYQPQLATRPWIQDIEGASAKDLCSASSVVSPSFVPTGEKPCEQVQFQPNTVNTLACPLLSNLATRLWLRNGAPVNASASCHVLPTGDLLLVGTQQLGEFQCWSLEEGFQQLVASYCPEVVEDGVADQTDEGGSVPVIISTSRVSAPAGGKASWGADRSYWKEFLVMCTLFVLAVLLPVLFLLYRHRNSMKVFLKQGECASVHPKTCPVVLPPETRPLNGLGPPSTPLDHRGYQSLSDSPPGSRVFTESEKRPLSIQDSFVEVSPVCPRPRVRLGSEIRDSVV

B1: C0120917 human Alya IgG1 conjugated to McMMAF (antibody, V domains shown)
VH: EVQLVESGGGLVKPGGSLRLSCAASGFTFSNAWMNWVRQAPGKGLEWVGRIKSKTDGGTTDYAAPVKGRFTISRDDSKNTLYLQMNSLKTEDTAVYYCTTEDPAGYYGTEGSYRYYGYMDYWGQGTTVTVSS
VL: NFMLTQPHSVSESPGKTVTISCTASGDTLDNKYVNWYQVRPGSAPATLIFHYEERDSGVPDRFSGSFDASSNSASLTISGLQTADEADYFCQSYDSKRDNLVVFGGGTKVTVL
modifications: McMMAF on the engineered cysteines 239iCys and S442C (EU numbering) of the heavy constant region
notes: Antibody-drug conjugate; human IgG1 Alya constant; also called C0120917-McMMAF
B2: C0120903 human Alya IgG1 conjugated to McMMAF (antibody, V domains shown)
VH: EVQLVQSGAEVKKPGSSMKVSCKASGGTFNSYTINWVRQAPGQGLEWVGGFIPIFGTADYAQKFHGRVAITADESMSTAYMELSSLRSEDTAVYYCARAPLGSEPFDYWGQGTMVTVSS
VL: SYVLTQPPSVSVAPGQTARITCGGNNIGSKSVHWYQQKPGQAPVLVVYDDSDRPSGIPERFSGSNSGNTATLTISRVEAGDEADYYCQVWDSSSDHLVFGGGTKLTVL
modifications: McMMAF on the engineered cysteines 239iCys and S442C (EU numbering) of the heavy constant region
notes: Antibody-drug conjugate; human IgG1 Alya constant; also called C0120903-McMMAF
B3: C0120906 human Alya IgG1 conjugated to McMMAF (antibody, V domains shown)
VH: EVQLVQSGPEVKKPGASVKISCKASGYKLNDPGVHGVSWVRQAPGQGLEWMGWISTLNGDTRYAQKFQGRVTMATDSSTSTIYMDLRSLKSDDTALYYCARDDYTAIFDFWGRGTLVTVSS
VL: QSVLTQPPSVSVAPGQTASITCGGSNIGSQSVHWYQQKPGQAPVLVVYDDSDRPSGIPERFSGSKSGNTASLILSRVEAGDEADYYCQVWDSSTDHHVFGTGTKVTVL
modifications: McMMAF on the engineered cysteines 239iCys and S442C (EU numbering) of the heavy constant region
notes: Antibody-drug conjugate; human IgG1 Alya constant; also called C0120906-McMMAF
B4: C0120914 human Alya IgG1 conjugated to McMMAF (antibody, V domains shown)
VH: QVQLQESGPGLVKPSETLSLTCTVSGGSVSSGRYDWSWIRQPPGKGLEWIGHIYYTGITDYNPSLRSRVTISADKPKNQFSLKLNSVTAADTAVYYCARGPFFDPWGQGTMVTVSS
VL: QSVLTQPPSVSVAPGQTASLTCGANNIGSKSVQWYQQKPGQAPVLVVYDGSDRPSGIPDRFSGSSSENTATLTISRVEAGDEADYYCQLWDSVTDRPVFGGGTKVTVL
modifications: McMMAF on the engineered cysteines 239iCys and S442C (EU numbering) of the heavy constant region
notes: Antibody-drug conjugate; human IgG1 Alya constant; also called C0120914-McMMAF
B5: C0120918 human Alya IgG1 conjugated to McMMAF (antibody, V domains shown)
VH: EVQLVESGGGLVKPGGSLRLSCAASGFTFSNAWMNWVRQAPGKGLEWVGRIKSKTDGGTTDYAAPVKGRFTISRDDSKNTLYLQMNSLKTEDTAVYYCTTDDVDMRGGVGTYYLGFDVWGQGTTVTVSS
VL: SYELTQPPSVSVSPGQTARITCSGDALPKQYAYWYQQKPGQAPVLVIYKDSERPSGIPERFSGSSSGTTVTLTISGVQAEDEADYYCQSADSSGTWVFGGGTKVTVL
modifications: McMMAF on the engineered cysteines 239iCys and S442C (EU numbering) of the heavy constant region
notes: Antibody-drug conjugate; human IgG1 Alya constant; also called C0120918-McMMAF
B6: 5Hg1-5Lg1 human Alya IgG1 conjugated to McMMAF (antibody, V domains shown)
VH: QVQLVQSGAEVKKPGASVKVSCKASGYTFTDYWMHWVRQAPGQGLEWMGAIDTSDSYTSYNQKFKGRVTMTRDTSTSTVYMELSSLRSEDTAVYYCARDYGNFYYYAMDYWGQGTLVTVSS
VL: QAVVTQEPSLTVSPGGTVTLTCRSSTGAVTTSNYANWFQQKPGQAPRTLIYGTNNRAPWTPARFSGSLLGGKAALTLSGAQPEDEAEYYCALWYSNHWVFGGGTKLTVL
modifications: McMMAF on the engineered cysteines 239iCys and S442C (EU numbering) of the heavy constant region
notes: Antibody-drug conjugate; human IgG1 Alya constant; also called 5Hg1/5Lg1-McMMAF
B7: 5Hg2-5Lg2 human Alya IgG1 conjugated to McMMAF (antibody, V domains shown)
VH: B6 VH with G44R, M70I, T76A, V79A
VL: B6 VL with S78L
modifications: McMMAF on the engineered cysteines 239iCys and S442C (EU numbering) of the heavy constant region
notes: Antibody-drug conjugate; human IgG1 Alya constant; also called 5Hg2/5Lg2-McMMAF
B8: mouse 5E3 as human Alya IgG1 conjugated to McMMAF (antibody, V domains shown)
VH: QVQLQQPGAELVMPGASVKMSCKASGYTFTDYWMHWVKQRPGQGLEWIGAIDTSDSYTSYNQKFKGKATLTVDESSSTAYMQLSSLTSEDSAVYYCARDYGNFYYYAMDYWGQGTSVTVSS
VL: QAVVTQESALTTSPGETVTLTCRSSTGAVTTSNYANWVQEKPDHLFTGLIGGTNNRAPGVPARFSGSLIGDKAALTITGAQTEDEAIYFCALWYSNHWVFGGGTKLTVL
modifications: McMMAF on the engineered cysteines 239iCys and S442C (EU numbering) of the heavy constant region
notes: Antibody-drug conjugate; human IgG1 Alya constant, drug-to-antibody ratio of four; also called Mouse 5E3-McMMAF
B9: C0120905 human Alya IgG1 conjugated to McMMAF (antibody, V domains shown)
VH: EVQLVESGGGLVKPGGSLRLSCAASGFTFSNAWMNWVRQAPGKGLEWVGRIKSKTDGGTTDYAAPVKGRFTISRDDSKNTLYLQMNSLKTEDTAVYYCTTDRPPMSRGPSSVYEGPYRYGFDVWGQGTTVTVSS
VL: NFMLTQPHSVSESPGKTVTISCTGSGGNIVDNFVQWHQQRPGSAPRTVIYEDDQRPSGVPDRFSASVDSSSNSGTLSISGLKTEDEADYYCQSYDGANRWVFGGGTKLTVL
modifications: McMMAF on the engineered cysteines 239iCys and S442C (EU numbering) of the heavy constant region
notes: Antibody-drug conjugate; human IgG1 Alya constant; also called C0120905-McMMAF

Tests used:
[1] = biological target: T1, human SEMA4A expressed on cells …; experiment: cell-based or functional assay
[2] = biological target: T1, human SEMA4A expressed on cells …; experiment: cell-based or functional assay; remark: listed apart in the source
[3] = biological target: T1, human SEMA4A expressed on cells …; experiment: flow cytometry on NCI-H929 cells endogenously expressing human SEMA4A, 10-point titration
Procedure: Binding of SEMA4A specific IgGs to membrane-bound SEMA4A was evaluated using flow cytometry in NCI-H929 cells that endogenously express human SEMA4A. Binding assays were performed by incubating the anti-SEMA4A antibodies with 200,000 cells for 3 hours at 4° C. followed by two washes with PBS, 1% (w/v) BSA (FACS buffer). A range of antibody concentrations were evaluated using a 10-point, 3-fold dilution series. Cells were then incubated with Alexa Fluor 647 conjugated AffiniPure Fab Fragment Goat Anti-Human IgG (H+L) (Jackson Immunoresearch Europe Limited, Ely, Cambridgeshire) diluted 1:100, at 4° C. for 1 hour, followed by two washes in FACS buffer. Cells were then stained with LIVE/DEAD™ Fixable Violet Dead Cell Stain (Life Technologies, L34955) for 30 minutes at 4° C., followed by two washes in FACS buffer. Cells were then fixed using BD Cell Fix (BD Biosciences, 340181). Fluorescence of live, single cells was measured using a Novocyte™ 3000 flow cytometer and Novoexpress software (Acea Biosciences, Inc, San Diego, CA). Data were analysed using FlowJo software (FlowJo, LLC, Ashland, OR). Mean fluorescence intensity values were plotted against antibody conjugate concentrations and KD values determined using Prism software (GraphPad Software Inc, La Jolla, CA).

[4] = biological target: T2, human SEMA4B expressed on expi293 cells; experiment: Mirrorball direct binding, dilution series on expi293 cells transiently transfected with human SEMA4B, anti-human Alexa Fluor 647
Procedure: To determine the specificity profile of each purified human Alya IgG1 conjugated to McMMAF, a dilution series was tested for binding to human SEMA4A, human SEMA4B and mock transfected cells (transient transfections set up in expi 293 cells.) The three assays employed methods described in section 2.3, using the appropriate cells and substituting the un-purified scFv periplasmic preparation with the human Alya IgG1 conjugated to McMMAF. Data was analysed as Count x median mean intensity (x FLU).

[5] = biological target: T1, human SEMA4A expressed on cells …; experiment: cell-based or functional assay; remark: listed apart in the source

| Binder | Average MM1.S IC50 [pM], cell kill [1] [pM] | Average NCI-H929 IC50 [pM], cell kill [1] [pM] | EC50 (nM), Fab-pHast internalisation into NCI-H929 [2] [nM] | Fold-Change at 6 hours (10 nM), Fab-pHast internalisation [2] [fold] | Kd [3] [nM] | binding result [4] | Average KARPAS 25 IC50 [pM], cell kill [5] [pM] | Average MM1.S IC50 [pM], cell kill [5] [pM] | Average NCI-H929 IC50 [pM], cell kill [5] [pM] |
| --- | --- | --- | --- | --- | --- | --- | --- | --- | --- |
| B1 | 10.9 | 18.1 | 8.29 | 53 | 40.5 | no binding (tested: log (M) -8 (1e-8 M)) | – | – | – |
| B2 | 8.8 | 7.1 | 0.98 | 118 | 9.88 | no binding (tested: log (M) -8 (1e-8 M)) | – | – | – |
| B3 | 4.7 | 3 | 4.1 | 116 | 9.67 | no binding (tested: log (M) -8 (1e-8 M)) | – | – | – |
| B4 | 1.1 | 2.5 | 3.29 | 112 | 9.04 | no binding (tested: log (M) -8 (1e-8 M)) | – | – | – |
| B5 | 13.2 | 55.8 | 3.62 | 79 | 1.6 | no binding (tested: log (M) -8 (1e-8 M)) | – | – | – |
| B6 | – | – | 0.54 | 121 | 1.46 | no binding (tested: log (M) -8 (1e-8 M)) | 625 | 35.8 | 100 |
| B7 | – | – | 0.59 | 103 | 2.46 | no binding (tested: log (M) -8 (1e-8 M)) | 181 | 10.7 | 34.3 |
| B8 | 5.8 | 5.1 | 0.25 | 160 | 3.18 | no binding (tested: log (M) -8 (1e-8 M)) | 126 | 5.95 | 7.53 |
| B9 | 63.5 | 90.8 | 3.72 | 91 | 34.3 | no binding (tested: log (M) -8 (1e-8 M)) | – | – | – |

— patent publication US20250152729A1 (CANCER RESEARCH TECHNOLOGY, published 2025)
